The source of these data is publication PMC2838725 (Biochemistry, 2010).

No end group written: not given here.

Experiment [1] has as its target C-terminal domain of Stt3p (residues 466-718), N-terminal His6-tagged (Saccharomyces cerevisiae) (UniProt P39007). Nature of the experiment: NMR titration.
Experiment [2] has as its target T1, C-terminal domain of Stt3p (residues 466-718), N-terminal His6-tagged (Saccharomyces cerevisiae, UniProt P39007 466-718).
T1 sequence (looked up): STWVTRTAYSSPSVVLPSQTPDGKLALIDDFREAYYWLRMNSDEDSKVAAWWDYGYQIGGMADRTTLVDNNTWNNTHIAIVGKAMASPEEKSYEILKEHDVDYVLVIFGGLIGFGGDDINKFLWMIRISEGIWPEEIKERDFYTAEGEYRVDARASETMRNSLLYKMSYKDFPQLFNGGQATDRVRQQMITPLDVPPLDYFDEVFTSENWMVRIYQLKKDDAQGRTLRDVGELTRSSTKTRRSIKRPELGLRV
The experiment is described as follows: saturation transfer difference.

For orientation: Kd means the constant that tells how readily two partners part at equilibrium. Lower therefore signals a tighter complex. substrate peptide Asn-Asp-Thr-NH2: the Kd in experiment [1] was determined as 9.97 mM.
Take YNSTSC-NH2 [six-residue acceptor substrate peptide Tyr-Asn-Ser-Thr-Ser-Cys-Am]: in experiment [2], the binding result is given as “binds”.
